Experiments:
[1] = target: Megasphaera NM10-related Cas2 and DEDDh fusion protein (Cas2/DEDDh) (Megasphaera NM10-related); test: cryo-EM structure; 50 µM Cas1, 50 µM Cas2/DEDDh and 12.5 µM prespacer or half-site DNA mixed, dialysed 2 h at room temperature, purified over Superose 6 Increase 10/300 GL; complexes bound to DNA
[2] = target: Megasphaera NM10-related Cas1 (Megasphaera NM10-related); test: as above
[3] = target: T1, Cas1 (type I-E);Cas2/DEDDh (natural Cas2-DEDDh fusion) (Megasphaera NM10-related;Megasphaera …, UniProt A0AA82WPF9;A0AA82WPG7 1-316;1-289, |); test: cryo-EM structure (2.9 A); Cryo-EM sample buffer not in the material; DNA annealed in 20 mM HEPES pH 7.5, 25 mM KCl, 10 mM MgCl2; protein storage 20 mM HEPES pH 7.5, 500 mM KCl, 1 mM TCEP, 5% glycerol; conditions: protein: recombinant;recombinant; tags: 10xHis-MBP removed with TEV;10xHis-MBP removed with TEV; chain copies: 4;2; 23 bp duplex, 3' overhangs 15 nt on both strands (5 nt visible)
T1 sequence 1: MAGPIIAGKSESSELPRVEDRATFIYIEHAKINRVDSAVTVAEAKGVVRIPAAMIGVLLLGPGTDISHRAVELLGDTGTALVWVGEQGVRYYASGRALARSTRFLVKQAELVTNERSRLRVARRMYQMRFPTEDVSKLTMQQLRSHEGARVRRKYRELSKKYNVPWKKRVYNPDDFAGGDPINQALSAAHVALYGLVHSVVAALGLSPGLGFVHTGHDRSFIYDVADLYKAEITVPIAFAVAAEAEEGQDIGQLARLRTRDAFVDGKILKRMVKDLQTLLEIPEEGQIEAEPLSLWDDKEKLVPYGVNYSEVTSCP
T1 sequence 2: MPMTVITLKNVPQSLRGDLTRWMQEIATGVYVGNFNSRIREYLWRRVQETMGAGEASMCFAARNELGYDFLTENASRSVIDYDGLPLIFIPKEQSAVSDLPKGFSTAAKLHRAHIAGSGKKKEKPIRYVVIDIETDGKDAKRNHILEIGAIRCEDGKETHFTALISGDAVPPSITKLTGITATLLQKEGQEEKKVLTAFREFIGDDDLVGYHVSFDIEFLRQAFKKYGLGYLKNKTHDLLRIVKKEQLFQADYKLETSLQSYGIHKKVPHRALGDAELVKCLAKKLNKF

[4] = target: T1, Cas1 (type I-E);Cas2/DEDDh (natural …); test: cryo-EM structure (3.1 A); Cryo-EM sample buffer not in the material; DNA annealed in 20 mM HEPES pH 7.5, 25 mM KCl, 10 mM MgCl2; protein storage 20 mM HEPES pH 7.5, 500 mM KCl, 1 mM TCEP, 5% glycerol; conditions: protein: recombinant;recombinant; tags: 10xHis-MBP removed with TEV;10xHis-MBP removed with TEV; chain copies: 4;2; 23 bp duplex, 3' overhangs 15 nt on both strands before trimming

Molecule: Megasphaera NM10-related Cas2 and DEDDh fusion protein (Cas2/DEDDh) (enzyme)
- stoichiometry N [1]: 2

Molecule: Megasphaera NM10-related Cas1 (enzyme)
- stoichiometry N [2]: 2

B1: CryoEM prespacer, PAM-deficient (dsDNA)
DNA 1: ACTCATGATGCACAAGTGGTTGCGCGTGAACCCAGTTG
DNA 2: GCAACCACTTGTGCATCATGAGTGATGAAACCCAGTTG
modifications: phosphorothioate between nt 28 and 29 of each strand
- binding result [3]: binds

B2: CryoEM prespacer, TT PAM-containing (dsDNA)
DNA 1: ACTCATGATGCACAAGTGGTTGCGCGTGTTCCCAGTTG
DNA 2: GCAACCACTTGTGCATCATGAGTGATGAAACCCAGTTG
modifications: phosphorothioate between nt 33 and 34 of strand 1 and between nt 28 and 29 of strand 2
- binding result [4]: binds

Source: publication PMC10284694, “Genome expansion by a CRISPR trimmer-integrase”
